Reference: publication PMC2151181 (The Journal of Cell Biology, 1999)

Biological target: SNARE core complex (synaptobrevin-II 1–96, syntaxin-1A 180–262, SNAP-25A 1–83, SNAP-25A 130–206) (rat, UniProt P63045;P32851;P60881-2)
Experiment: native gel or EMSA

B1: synaptotagmin III C2A-C2B, residues 295–569 (domain or fragment)
chain: APCGRISFALRYLYGSDHLVVRILQALDLPAKDSNGFSDPYVKIYLLPDRKKKFQTKVHRKTLNPIFNETFQFSVPLAELAQRKLHFSVYDFDRFSRHDLIGQVVLDNLLELAEQPPDRPLWRDILEGGSEKADLGELNFSLCYLPTAGRLTVTIIKASNLKAMDLTGFSDPYVKASLISEGRRLKKRKTSIKKNTLNPTYNEALVFDVAPESVENVGLSIAVVDYDCIGHNEVIGVCRVGPEAADPHGREHWAEMLANPRKPVEHWHQLVEEKT
Does B1 bind?
Result: binds
